Laboratory results published in patent US10293027B2, “Methods for treating metabolic disorders using FGF” (Salk Institute for Biological Studies, priority 2010, dated 2019).
“Also recorded” adds a separate entry of the source.

Tests used:
[1] = system: db/db leptin receptor mutant diabetic mice; assay: Single s.c. FGF-1 injection, blood glucose in db/db mice; format: in vivo, mouse; settings: single s.c. injection 0.5 mg/kg
From the text: FIG. 24. FGF-1 effects in db/db mice. […] The db/db model is considered to represent a […] diabetes model than ob/ob.
(§1) The ob/ob model is considered to represent a very severe diabetic disease. In order to investigate the effect of FGF-1 on less severe diabetic/metabolic disorder models, we tested blood glucose levels in db/db mice and diet induced obese mice.

ob/ob diabetic mice = assay: Delivery method (s.c., i.p., i.v.) and FGF-1 blood glucose effects (Example 11); format: in vivo, mouse
Protocol: FIG. 22. Assessment of delivery method on FGF-1 blood glucose effects.
FIG. 23. Assessment of delivery method on duration of FGF-1 activity. Single subcutaneous (sc) or intravenous (iv) injection of FGF-1 (0.5 mg/kg) in ob/ob mice.
To determine if the effects of FGF-1 depend on the route of administration, we tested blood glucose levels of ob/ob mice in response to 0.5 mg/kg body weight FGF-1 delivered s.c., i.p. and i.v. PBS injections were used as controls. […] We next compared i.v. and s.c. injections for duration of the glucose normalizing effect.

[2] = system: Glucose Transporter 1 (Glut1); assay: Glut1 expression in 3T3-L1 adipocytes; format: cell-based, mouse
Protocol: FIGS. 6A-6B. FGF-1 and rosiglitazone stimulation of Glut1 expression in 3T3-L1 adipocytes. 3T3-L1 adipocytes were treated with FGF-1 (+=50 ng/ml, ++=100 ng/ml), rosiglitazone (1 μM), or in combination. (A) mRNA (top) and protein (bottom) levels of Glucose Transporter 1 (Glut1); (B) mRNA (top) and protein (bottom) levels of Glucose Transporter 4 (Glut4).
3T3-L1 mouse pre-adipocytes were from American Type Culture Collection (ATCC, Rockville, Md.). Cells were maintained at sub-confluence in growth medium (GM) containing 10% calf serum in Dulbecco's modified Eagle's medium (DMEM) at 37° C. and 5% CO2. For standard adipocyte differentiation, cells were stimulated at 2 days post confluency (referred as day 0) with differentiation medium (DM) containing 10% fetal bovine serum (FBS), 5 μg/ml insulin, 1 μM dexamethasone, and […] 3-isobutyl-1-methylxanthine (IBMX) for 48 hours. […]
Total RNA was isolated from mouse tissue and cells using TRIzol reagent (Invitrogen). cDNA was synthesized from 1 μg of DNase-treated total RNA using SuperScript II reverse transcriptase (Invitrogen). mRNA levels were quantified by QPCR with SYBR Green (Invitrogen). Samples were run in technical triplicates, and relative mRNA levels were calculated by using the standard curve methodology and normalized against 36B4 mRNA levels in the same samples.

[3] = system: diet-induced obesity mice (C57BL/6); assay: Single s.c. FGF-1 injection, blood glucose in DIO mice; format: in vivo, mouse; settings: single s.c. injection 0.5 mg/kg
From the text: FIG. 25. FGF1 effects in DIO mice.
as §1

B1: FGF-1: recombinant mouse FGF-1 (acidic fibroblast growth factor), a secreted protein that binds heparin and FGF receptors (protein, UniProt P61148 16-155, looked up)
Fibroblast growth factor 1: FNLPLGNYKKPKLLYCSNGGHFLRILPDGTVDGTRDRSDQHIQLQLSAESAGEVYIKGTETGQYLAMDTEGLLYGSQTPNEECLFLERLEENHYNTYTSKKHAEKNWFVGLKKNGSCKRGPRTHYGQKAILFLPLPVSSD
- blood glucose in db/db mice [1]: effective for reducing blood glucose levels in both systems; also recorded: normalizes blood glucose
- acute blood glucose effect by s.c., i.p. and i.v. delivery (ob/ob diabetic mice; 0.5 mg/kg): about the same for all three injection methods
- time of stable glucose levels after intravenous administration (ob/ob diabetic mice; 0.5 mg/kg i.v., duration of the test): at least 60 hours
- duration of glucose normalizing effect, iv compared to sc (ob/ob diabetic mice; single injection 0.5 mg/kg): persist longer when administered iv as compared to sc
- expression of GLUT1 in combination with rosiglitazone ([2]; 3T3-L1 adipocytes, FGF-1 plus rosiglitazone (1 μM)): acts synergistically with rosiglitazone
- expression of GLUT1 ([2]; mouse 3T3-L1 adipocytes, prolonged treatment, FGF-1 50 or 100 ng/ml): induces the expression of GLUT1
- blood glucose in diet-induced obesity mice ([3]; 0.5 mg/kg): effective for reducing blood glucose levels in both systems
- blood glucose in diet-induced obesity mice ([3]; listed as FGF1, 0.5 mg/kg): normalizes blood glucose
